Key:
[1] = mouse, in vivo, iv
patients = conditions: human, in vivo; cited from earlier work
[2] = mouse, in vivo

B1: imiglucerase (protein)
chain: ARPCIPKSFGYSSVVCVCNATYCDSFDPPTFPALGTFSRYESTRSGRRMELSMGPIQANHTGTGLLLTLQPEQKFQKVKGFGGAMTDAAALNILALSPPAQNLLLKSYFSEEGIGYNIIRVPMASCDFSIRTYTYADTPDDFQLHNFSLPEEDTKLKIPLIHRALQLAQRPVSLLASPWTSPTWLKTNGAVNGKGSLKGQPGDIYHQTWARYFVKFLDAYAEHKLQFWAVTAENEPSAGLLSGYPFQCLGFTPEHQRDFIARDLGPTLANSTHHNVRLLMLDDQRLLLPHWAKVVLTDPEAAKYVHGIAVHWYLDFLAPAKATLGETHRLFPNTMLFASEACVGSKFWEQSVRLGSWDRGMQYSHSIITNLLYHVVGWTDWNLALNPEGGPNWVRNFVDSPIIVDITKDTFYKQPMFYHLGHFSKFIPEGSQRVGLVASQKNDLDAVALMHPDGSAVVVVLNRSSKDVPLTIKDPAVGFLETISPGYSIHTYLWHRQ
modifications: short N-linked oligosaccharide chains with ~3 exposed α-mannosyl residues
serum activity by 20 min post-injection [1]: < 10 % of the 2-min values | t½ of GCase CRIM disappearance in serum [1]: ~0.217 h | t½ of clearance of GCase activity in serum [1]: 8 to 11 min | catalytic value (CRIM-SA) of intact enzyme remaining in serum by 20 min ([1]; 20 min): < 10 % of its original catalytic value | documented IgE-mediated or anaphylactic reactions (patients): < 1% | patients who developed an IgG antibody response (patients): 13–15% | time liver activity remained at ≥WT level [2]: ~180 min | decrease of spleen enzyme activity by 40 min ([2]; iv): ~40% | enzyme localized to the liver interstitial cells ([2]; iv): ≥ 80% | enzyme recovered in spleens and lungs ([2]; iv): < 5% | injected enzyme recovered from the liver ([2]; iv): ≥ 60% | peak spleen activity lower than in 20-wk mice ([2]; iv): 2- to 3 fold | t½ of CRIM disappearance in liver ([2]; iv): 1.5 to 1.83 h | t½ of CRIM levels in spleen ([2]; iv): ~1 h | t½ of GCase activity disappearance in liver ([2]; iv): ~1.67 h | t½ of GCase protein disappearance in spleen ([2]; iv): 1.0 to 1.5 h | t½ of activity disappearance in liver ([2]; iv): about 60 min

— paper PMC2873993, “Comparative Therapeutic Effects of Velaglucerase Alfa and Imiglucerase in a Gaucher Disease Mouse Model” (PLoS ONE, 2010)
